# B1: γ6L: rat calcium channel γ6 subunit, long isoform (AF361343), SEQ ID NO:48 (protein, listed as Rattus norvegicus)
# chain: MMWSNFFMQEEDRRRTAVGRRRAQEQQNLGLTPEREGKIKLGLLVAIVGATLAVLAVGTEFWVELNTYKTNGSAVCEAAHLGLWKVCIKRLWQADVPAGRETCGPAELPGEANCTYFKFFTTGENAHIFQRTTKKEVNLAAAVIAVLGLTAMALGCLCVIMVLSKGAEFLLRLGAVCFGLSGLLLFVSLEVFRHSVRALLQGVNPETPPAPRLAYEYSWSLGCGVGAGLILLLGGVCFLLLTLPSWPWRSLCPKRGGPTA
# B2: γ4: rat calcium channel γ4 subunit (AF361341), SEQ ID NO:47 (protein, listed as Rattus norvegicus)
# chain: MVRCDRGLQMLLTTAGAFAAFSLMAIAIGTDYWLYSSAHICNGTNLTMDDGPPPRRARGDLTHSGLWRVCCIEGIYKGHCFRINHFPEDNDYDHDSSEYLLRIVRASSVFPILSTILLLLGGLCIGAGRIYSRKNNIVLSAGILFVAAGLSNIIGIIVYISSNTGDPSDKRDEDKKNHYNYGWSFYFGALSFIVAETVGVLAVNIYIEKNKELRFKTKREFLKASSSSPYSRMPSYRYRRRRSRSSSRSTEASPSRDASPVGLKITGAIPMGELSMYTLSREPLKVTTAASYSPDQDAGFLQMHDFFQQDLKEGFHVSMLNRRTTPV
# Biological target: T1, Cav3.1 (Homo sapiens, UniProt O43497)
# T1 construct: expressed in transfected cells; host or cells: HEK-293, stably transfected
# Assay: Whole-cell patch clamp of Cav3.1 dependent LVA calcium current in HEK-293/Cav3.1 cells transiently transfected with γ subunits (Example 1)
# Assay type: cell-based
# Conditions: for Effect on current kinetics or voltage dependency: HEK-293/Cav3.1; for Peak current density, % of control value: HEK-293/Cav3.1, normalized to adCGI vector control, mean±S.E.M.; for Activation V 0.5 / Activation k / Deactivation tau @ −100 mV, Fast / Inactivation Tau @ −20 mV / Inactivation V 0.5 / Inactivation k / Time to peak @ −20 mV / V peak: Table 2
# Method: 2.3. Transfection. Untransfected HEK-293 cells, HEK-293 cell lines stably transfected with Cav3.1, and HL-1 cells were transiently transfected with vectors containing γ subunit, GFP, and modified CFP cDNAs using Lipofectamine 2000 reagent (InVitrogen) as per the manufacturer's recommendations. HEK-293 cells were grown to 70-80% confluence before transfection. HL-1 cells were grown to 50-75% confluence before transfection.
# 2.4. Electrophysiology. Whole-cell calcium currents were recorded using an Axopatch-1 D patch clamp system and Clampex 8.0 software. Pipettes were fabricated from borosilicate glass and had typical resistances of 2-4 MΩ. The pipette solution contained (in mM): 130 NaCl, 10 EGTA, 2 MgCl2, 1 CaCl2, 10 HEPES, 3 Tris-ATP, and either 0.3 Li2GTP or 0.3 Tris-GTP, adjusted to pH 7.4 with NaOH and 280 mOsm with sucrose. The bath solution contained (in mM): 137 NaCl (for HEK-293 experiments) or 120 TEACl (for HL-1 experiments), 1 KCl, 1 MgCl2, 0.33 NaH2PO4, 2 CaCl2 (for HEK-293 experiments) or 5 CaCl2 (for HL-1 experiments), 10 glucose (for HL-1 experiments only), 10 HEPES, and 30 μM TTX (for HEK-293 experiments only), adjusted to pH 7.4 with NaOH (for HEK-293 experiments) or TEAOH (for HL-1 experiments) and 280 mOsm with sucrose. NaCl was used as the major salt in the pipette solution order to eliminate any outward K+ currents.
# Recordings from HEK-293 cells were made 48-96 h posttransfection, at which time expression, as measured by GFP fluorescence, peaked. HL-1 cells were used for recording 24-36 h post-transfection. Current densities in HEK-293/Cav3.1 cell experiments were normalized to control for variation in current expression in the different frozen stocks of stable cell lines used. […] HL-1 experiments were performed using a single stock of cells. All HEK-293 data are from current records in which pipette and whole-cell capacitance were about 100% compensated and series resistance was compensated to >80%. Whole-cell capacitance and series resistance were not compensated for HL-1 recordings as currents were typically <100 pA. Series resistance values were typically <10 MX, and no records were used in which the voltage error (as defined by Ver=Imax×Ra) was greater than 5 mV. The holding potential of all protocols used for HEK-293 cells was −100 mV except for steady-state inactivation protocols where the holding potential was −120 mV. The holding potential for protocols used for HL-1 cells was −90 mV. Current-voltage relationships for all HEK-293 and HL-1 cells were measured using 50 ms test depolarizations. Peak current amplitudes for activation curves were determined by fitting tail currents, elicited by stepping membrane voltage from varying test potentials to −60 mV, with the Boltzman equation. Test potential steps for activation protocols were of varied durations, corresponding to the time to peak of the elicited current. Inactivation curves were determined by fitting peak amplitudes of currents, observed in a test pulse to −20 mV, following 500 ms steps to varying potentials, with the Boltzman equation. Time to peak was determined using the current-voltage protocol described above. Inactivation time constants were determined by fitting the decay phase of currents to an exponential equation and deactivation time constants were determined by fitting the decay phase of tail currents to an exponential equation. […] Currents were recorded at 40 kHz and on-line filtered at either 5 or 10 kHz. In some cases currents were off-line filtered at 1 kHz to further reduce noise. Current/voltage relationships and tail currents were recorded from HEK cells using an on-line P/−4 subtraction procedure. Calcium currents recorded from HL-1 cells were off-line leak subtracted. The average membrane capacitance of untransfected HEK-293 cells in pilot experiments was 12.5±1.4 pF (n=8). […]
# T1 sequence (O43497 whole entry): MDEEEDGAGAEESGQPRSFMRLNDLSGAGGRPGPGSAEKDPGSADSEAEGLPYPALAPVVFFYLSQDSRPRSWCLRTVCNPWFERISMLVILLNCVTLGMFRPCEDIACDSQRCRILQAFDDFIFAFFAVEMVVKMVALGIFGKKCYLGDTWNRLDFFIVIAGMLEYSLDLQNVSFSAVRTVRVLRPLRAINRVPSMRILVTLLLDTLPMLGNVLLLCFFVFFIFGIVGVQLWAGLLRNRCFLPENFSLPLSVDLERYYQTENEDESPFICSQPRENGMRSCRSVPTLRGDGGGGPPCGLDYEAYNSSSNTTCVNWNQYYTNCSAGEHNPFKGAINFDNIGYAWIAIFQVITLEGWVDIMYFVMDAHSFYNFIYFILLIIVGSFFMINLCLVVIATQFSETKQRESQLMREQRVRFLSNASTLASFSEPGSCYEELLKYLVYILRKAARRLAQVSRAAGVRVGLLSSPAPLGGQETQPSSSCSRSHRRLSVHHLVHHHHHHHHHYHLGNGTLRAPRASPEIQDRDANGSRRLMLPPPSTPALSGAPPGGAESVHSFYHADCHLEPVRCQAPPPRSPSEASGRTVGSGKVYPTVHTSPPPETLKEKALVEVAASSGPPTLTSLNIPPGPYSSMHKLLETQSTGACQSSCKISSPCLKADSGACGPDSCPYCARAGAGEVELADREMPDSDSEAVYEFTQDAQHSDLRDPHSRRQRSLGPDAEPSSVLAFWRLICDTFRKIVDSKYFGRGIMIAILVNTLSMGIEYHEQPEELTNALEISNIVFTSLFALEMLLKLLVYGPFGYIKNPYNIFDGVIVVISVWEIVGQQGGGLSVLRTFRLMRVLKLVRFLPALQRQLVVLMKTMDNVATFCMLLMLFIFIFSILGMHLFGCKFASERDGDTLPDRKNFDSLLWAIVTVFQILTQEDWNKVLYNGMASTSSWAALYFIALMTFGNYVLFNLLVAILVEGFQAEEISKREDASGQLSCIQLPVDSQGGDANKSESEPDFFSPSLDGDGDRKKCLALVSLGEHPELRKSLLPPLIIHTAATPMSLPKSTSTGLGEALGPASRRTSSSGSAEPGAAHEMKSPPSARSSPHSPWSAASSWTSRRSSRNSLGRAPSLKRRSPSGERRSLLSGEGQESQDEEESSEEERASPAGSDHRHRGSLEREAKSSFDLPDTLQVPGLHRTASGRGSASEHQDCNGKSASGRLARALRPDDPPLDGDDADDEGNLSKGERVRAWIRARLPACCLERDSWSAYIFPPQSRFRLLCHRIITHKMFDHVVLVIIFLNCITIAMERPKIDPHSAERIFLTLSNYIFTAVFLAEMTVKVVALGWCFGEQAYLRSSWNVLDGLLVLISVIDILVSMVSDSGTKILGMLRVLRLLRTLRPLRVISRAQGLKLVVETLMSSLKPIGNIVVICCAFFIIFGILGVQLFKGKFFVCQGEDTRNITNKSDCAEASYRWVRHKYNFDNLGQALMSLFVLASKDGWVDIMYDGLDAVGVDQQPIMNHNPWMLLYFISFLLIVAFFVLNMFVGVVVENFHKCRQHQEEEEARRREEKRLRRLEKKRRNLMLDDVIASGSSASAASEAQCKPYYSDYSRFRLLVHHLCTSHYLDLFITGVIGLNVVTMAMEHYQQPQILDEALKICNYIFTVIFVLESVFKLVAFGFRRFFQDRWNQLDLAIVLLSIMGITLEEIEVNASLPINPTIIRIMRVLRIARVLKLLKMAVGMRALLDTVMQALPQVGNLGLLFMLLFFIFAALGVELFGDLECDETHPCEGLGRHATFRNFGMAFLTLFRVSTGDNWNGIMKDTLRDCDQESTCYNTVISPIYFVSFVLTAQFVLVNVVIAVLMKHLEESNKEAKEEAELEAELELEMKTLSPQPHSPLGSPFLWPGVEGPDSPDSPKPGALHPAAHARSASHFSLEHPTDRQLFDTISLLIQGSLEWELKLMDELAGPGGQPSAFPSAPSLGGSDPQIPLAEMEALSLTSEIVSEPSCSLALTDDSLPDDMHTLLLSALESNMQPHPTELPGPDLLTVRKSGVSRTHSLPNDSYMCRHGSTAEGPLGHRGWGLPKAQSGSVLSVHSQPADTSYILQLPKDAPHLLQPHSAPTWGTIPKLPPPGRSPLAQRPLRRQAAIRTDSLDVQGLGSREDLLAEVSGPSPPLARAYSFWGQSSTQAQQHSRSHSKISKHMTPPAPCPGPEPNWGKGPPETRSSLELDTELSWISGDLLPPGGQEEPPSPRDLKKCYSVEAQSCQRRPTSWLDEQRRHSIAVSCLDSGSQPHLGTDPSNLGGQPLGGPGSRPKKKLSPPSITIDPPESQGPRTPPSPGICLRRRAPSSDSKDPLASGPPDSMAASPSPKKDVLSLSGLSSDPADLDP
molecule,measurement,setting,value
B1,Effect on current kinetics or voltage dependency,,did not alter current kinetics or voltage dependency
same,"Peak current density, % of control value",,51%±17%
same,Activation V 0.5,,−36.3 ± 6.2 (n = 4) mV
same,Activation k,,12.7 ± 1.5 (n = 4)
same,"Deactivation tau @ −100 mV, Fast",,1.54 ± 0.48 (n = 4) ms
same,Inactivation Tau @ −20 mV,,18.6 ± 1.1 (n = 6) ms
same,Inactivation V 0.5,,−78.5 ± 2.6 (n = 6) mV
same,Inactivation k,,5.4 ± 0.3 (n = 6)
same,Time to peak @ −20 mV,,6.0 ± 0.8 (n = 5) ms
same,V peak,,−31.1 ± 3.1 (n = 9) mV
same,Decrease in Cav3.1 current density,co-expression with Cav3.1 in HEK-293 cells,49%
B2,Effect on current kinetics or voltage dependency,,did not alter current kinetics or voltage dependency
same,"Peak current density, % of control value",,93%±7%
same,Effect on Cav3.1 current,HEK-293 cells,no significant effect
same,Activation V 0.5,,−37.3 ± 0.9 (n = 8) mV
same,Activation k,,11.8 ± 0.5 (n = 8)
same,"Deactivation tau @ −100 mV, Fast",,1.84 ± 0.28 (n = 8) ms
same,Inactivation Tau @ −20 mV,,15.8 ± 0.7 (n = 7) ms
same,Inactivation V 0.5,,−79.2 ± 1.5 (n = 7) mV
same,Inactivation k,,6.1 ± 0.2 (n = 7)
same,Time to peak @ −20 mV,,5.2 ± 0.5 (n = 9) ms
same,V peak,,−30.6 ± 1.5 (n = 9) mV
same,"Peak current, % of control value",doubling the amount of γ4 DNA transfected,128%±19%
